The record followed here is ChEMBL document CHEMBL1126368, “Carbocyclic phosphonate analogs of 2,3-dideoxyadenosine-5-monophosphate as substrates of 5-phosphoribosyl-1-pyrophosphate (PRPP) synthetate” (Bioorg Med Chem Lett, 1992).

Data set [1] in a line: Ratio (FA) of Vmax/Km of AMP to that of compound.
Data set [2] is described as follows: Ratio (FA) of Vmax/Km of the compound.
Substrate in data set [3]: Nc1ncnc2c1ncn2C1CCC(COP(=O)(O)O)O1
The experiment in a line: Vmax as a substrate for 0.4 ug of Pyrophosphate Synthetase (PRPP) per assay. The conditions noted are these: Escherichia coli.

Substrate in data set [4]: Nc1ncnc2c1ncn2C1CCC(COP(=O)(O)O)O1
The data set can be described thus: Vmax as a substrate for per mg of Pyrophosphate Synthetase (PRPP). The conditions noted are these: Escherichia coli.

Substrate in data set [5]: Nc1ncnc2c1ncn2[C@H]1CC[C@@H](CC(F)(F)P(=O)(O)O)C1
The experiment in a line: (§1) Vmax as a substrate for Pyrophosphate Synthetase (PRPP). The conditions noted are these: Escherichia coli.

Substrate in data set [6]: Nc1ncnc2c1ncn2CCCCCP(=O)(O)O
The data set is described as §1. The conditions noted are these: Escherichia coli.

Substrate in data set [7]: Nc1ncnc2c1ncn2[C@H]1CC[C@@H](CCP(=O)(O)O)C1
Described as §1. The conditions noted are these: Escherichia coli.

Substrate in data set [8]: Nc1ncnc2c1ncn2[C@@H]1C[C@H](CCP(=O)(O)O)C[C@@H]1O
Described as §1. The following applies: Escherichia coli.

Substrate in data set [9]: Nc1ncnc2c1ncn2[C@H]1CC[C@@H](CCOP(=O)(O)O)C1
The description is as §1. The conditions noted are these: Escherichia coli.

Substrate in data set [10]: Nc1ncnc2c1ncn2C1O[C@H](COP(=O)(O)O)[C@H](O)[C@@H]1O
Described as §1. The conditions noted are these: Escherichia coli.

Substrate in data set [11]: Nc1ncnc2c1ncn2CCOCP(=O)(O)O
Described as §1. The conditions noted are these: Escherichia coli.

Substrate in data set [12]: Nc1ncnc2c1ncn2CCCCCP(=O)(O)O
The experiment in a line: (§2) Km value as a substrate for Pyrophosphate Synthetase (PRPP). The following applies: Escherichia coli.

Substrate in data set [13]: Nc1ncnc2c1ncn2[C@H]1CC[C@@H](CCP(=O)(O)O)C1
Described as §2. The following applies: Escherichia coli.

Substrate in data set [14]: Nc1ncnc2c1ncn2[C@@H]1C[C@H](CCP(=O)(O)O)C[C@@H]1O
The data set is described as §2. The conditions noted are these: Escherichia coli.

Substrate in data set [15]: Nc1ncnc2c1ncn2[C@H]1CC[C@@H](CCOP(=O)(O)O)C1
The description is as §2. The following applies: Escherichia coli.

Substrate in data set [16]: Nc1ncnc2c1ncn2C1O[C@H](COP(=O)(O)O)[C@H](O)[C@@H]1O
The data set is described as §2. The conditions noted are these: Escherichia coli.

Substrate in data set [17]: Nc1ncnc2c1ncn2C1CCC(COP(=O)(O)O)O1
The experiment in a line: Km value as a substrate for 0.4 ug of Phosphribosyl Pyrophosphate Synthetase (PRPP) per assay. The following applies: Escherichia coli.

Take `Nc1ncnc2c1ncn2[C@H]1CC[C@@H](CCP(=O)(O)O)C1`: the Ratio in data set [1] amounted to 63.
Consider `Nc1ncnc2c1ncn2[C@@H]1C[C@H](CCP(=O)(O)O)C[C@@H]1O`, for which the Ratio in data set [1] was 11.
Still for that read-out and setting: as for `Nc1ncnc2c1ncn2CCCCCP(=O)(O)O`, the figure is 32; as for `Nc1ncnc2c1ncn2[C@H]1CC[C@@H](CCOP(=O)(O)O)C1`, 179.
For the molecule `Nc1ncnc2c1ncn2C1CCC(COP(=O)(O)O)O1` (stereo unspecified), the Ratio in data set [2] came to 1.
In the case of `Nc1ncnc2c1ncn2[C@@H]1O[C@H](COP(=O)(O)O)[C@H](O)[C@@H]1O`, in data set [1], the Ratio came out at 13.

B1: Ribose-phosphate pyrophosphokinase 1 (Homo sapiens), P60891 (protein)
chain: MPNIKIFSGSSHQDLSQKIADRLGLELGKVVTKKFSNQETCVEIGESVRGEDVYIVQSGCGEINDNLMELLIMINACKIASASRVTAVIPCFPYARQDKKDKSRAPISAKLVANMLSVAGADHIITMDLHASQIQGFFDIPVDNLYAEPAVLKWIRENISEWRNCTIVSPDAGGAKRVTSIADRLNVDFALIHKERKKANEVDRMVLVGDVKDRVAILVDDMADTCGTICHAADKLLSAGATRVYAILTHGIFSGPAISRINNACFEAVVVTNTIPQEDKMKHCSKIQVIDISMILAEAIRRTHNGESVSYLFSHVPL
The Km is the concentration of substrate that gives half-maximal velocity. With B1, the Vmax amounted to 100% in data set [3]; 34.5 µM/h in [4]; 0.07% in data set [5]; 7.5% in data set [6]; 3% in [7]; 7.4% in data set [8]. The Vmax worked out at 0.5% in data set [9], 45% in data set [10] and 0.2% in data set [11]. For the same molecule, the Michaelis constant (Km) was found to be 690 µM in data set [12]; 550 µM in data set [13]; 240 µM in [14]; 260 µM in data set [15]; 1700 µM in data set [16]; 290 µM in [17].
